Article PMC8428573

Biological target: SARS-CoV-2 spike protein extracellular domain (residues 14 to 1209, S1 and S2 without the transmembrane domain) (SARS-CoV-2) (UniProt P0DTC2)
Test: SEC

Substance “SARS-CoV-2 spike protein extracellular domain (residues 14 to 1209, S1 and S2 without the transmembrane domain) (from UniProt P0DTC2 14-1209) (domain or fragment)” has a stoichiometry N of 3.
